B1: Protein C-ets-1, residues 55 to 135; numbered along this chain, P14921 (parent)
chain: GFTKEQQRLGIPKDPRQWTETHVRDWVMWAVNEFSLKGVDFQKFCMNGAALCALGKDCFLELAPDFVGDILWEHLEILQKE

Variants of: B1
Test: abundance fitness (aPCA) (normalised: wild type 0, dead -1); higher = more abundant; growth selection in yeast, the domain comes from the species named
Settings: Homo sapiens

Abundance fitness, by site and new letter:
I11: T -0.205; P -0.465; V -0.09; C -0.108; D -0.647; H -0.364; E -0.773; Y -0.207; L -0.013; R -0.132; W -0.078; N -0.288; A -0.326; S -0.344; K -0.695; G -0.583
K13: R -0.077; Q -0.059; C -0.04; D -0.054; L -0.065; M -0.086; H -0.04; P 0.023; E -0.084; T -0.064; W -0.117; V -0.1; I -0.022; G -0.088; N 0.008; Y -0.249; F -0.152
F2: V -0.289; H -0.43; P -0.398; E -0.345; Q -0.522; K -0.232; N -0.141; D -0.143; G -0.272; Y -0.161; S -0.365; L -0.343; M -0.238; I -0.355; T -0.23; R -0.298
T3: P -0.177; K 0.025; W -0.031; G -0.042; E 0.011; A -0.032; V -0.063; I -0.005; N -0.121; Y -0.206; R -0.082; Q -0.032; F -0.029; L -0.055; C -0.075; M -0.028; H -0.066
Q7: P -0.294; W -0.133; E 0.089; R -0.034; A -0.055; L -0.02; G -0.047; D 0; F -0.121; M 0.04; V -0.028; K 0.074; N -0.026; I 0.062; C -0.256; T -0.06; S -0.069
G10: P -0.263; R -0.056; I -0.187; W -0.364; Q 0.008; K -0.028; A -0.057; Y -0.33; V -0.2; H -0.072; D 0.015; L -0.244; S -0.062; E -0.067; T -0.103; C -0.15; N -0.135
R8: W -0.169; K -0.062; I -0.17; Q -0.083; N -0.16; S -0.136; V -0.122; E -0.074; Y -0.212; C -0.154; D -0.093; M -0.138; H -0.095; P -0.132; F -0.091; T -0.111; G -0.112; L -0.086
Q17: R -0.058; E 0.046; L -0.088; T 0.033; A 0.013; H -0.115; Y -0.154; N -0.021; C -0.034; V 0.002; P -0.983; M 0.014; G -0.159; D 0.016; F -0.1; W -0.148; I -0.114
P12: L -0.567; D -0.371; A -0.46; T -0.799; M -0.747; Q -0.814; C -0.305; W -0.706; H -0.379; E -0.413; G -0.427; N -0.47; V -0.763; F -0.606; S -0.28; R -0.709; K -0.419
T19: P -0.936; I -0.705; F -0.858; E -0.155; R -0.205; V -0.635; Y -0.642; L -0.376; W -0.945; S -0.052; Q -0.228; C -0.221; H -0.153; M -0.345; N -0.16

Source: the Human Domainome abundance scans (Beltran et al. 2025)
